Experiment: soluble on expression in E. coli; label from the status in PepcDB or PDB records

Soluble on expression in E. coli, not soluble:
MGSDKIHHHHHHMDGREIELKLALAPEDLARIAQRPCLSAGRLAEPTSKRLSSIYYDTSDHILASQGIAVRVRRTGSGFVQTVKTAGTSVSGLFDRDEWEVPLASPDLDAEQLRLTGLAAFADGELADLLTPVFSTEVDRVLIRLGGEGWEAEVALDRGALVVGDRREEISEVELELVSGTPAHLFRLATHIQAETAARPLCLSKSERGYSLAAGKTAPVVKAKAPILTPAMTVEESFRAIARACLEHLMLNERCLLATEAGEAIHQMRVAMRRMRSAIKVFKAVTEGPDLERIKDDLRWLLAHLGPARDADVFLSEIVDPVLAAHPGNAGLIALRAHWRKDRETKLAAAISAVKSKRYATMTLNLGRWVETGDWLTPSHGGARRRLAEPIATFAAGRVGKVVTRLLKEGGETLSRLSPEQRHAVRIRGKQVRYAGEFFASLVPRKSTKVYLSELAELQDVLGKLNDIAVAGPKLSGRGAGAGSSRAAGLIAGWHQSRRATLLNDADKCWKRWRALPLPWDEK
MGSDKIHHHHHHMDIRHLRYFVSIVDNDFNLSRASLNLYVSQPALSMMISDFENKEGVQLFKRAQGKIVGLTYVGENYYRDAKEVIKKYNEMHSNLHKSIEQIKGHISIGIPPLILSVVFSEVMPKLILNNPEINFTIKELGAYLLKSDLLLENIDFAVLLNPERISKNIIESYEIHRSELSLFLSPKHHLSAKENITWRDLHGEKIVIFDQTFMIHHQLVESFERHNVYPNIVLKSSSWDFLLYSVKINESLLTILPLPMYEQYKSTEFICRRMEEAIPWSVTLCRLKKNCYTNVEEYIFDSLLKAFKP
MGSDKIHHHHHHMDKPMTENPVHPAEAGPSGPADAAGKAPGLAAVESRQRMRDGTELLLRTWEPDPCMFPETVGCVLLVHGLAEHCGRYQHVAEVLCGLGLRVRAYDQRGHGASGGARMVAEHPDAYLNDLVEIHDAAVRVWKELPILLGHSMGGLVAARFATARLRPVRALVLSSPALALRLSPTMLTIHRVLLTLAPRLRVPNPIDARMLSHDAHVVARYRADPLVQTTITAGVLESFIRGMAQAQTDAPRLEAPMLMLVGGADKIVDPGGSRTFFDHAPADLREEVWFGEGYHEIFNEAEPLRSKVFAALTDWLRRHLAQPV
MGSDKIHHHHHHMDKVIEMKGITKVFPGTIANDNVNFELTRGETHVLLGENGAGKTTLMNILYGLYHPEKGQIIVNGKSVQFSGPNDAIKSGIGMVHQHFMLVNNFTVAENIVLGMEPKNGIRVDMGKAINNVKELSDKYGFAIEPKAIIEDISVGQQQKVEILKALYRGADVLILDEPTAVLTPQEIDELGDIIENLKKEGKSVILITHKLKEVMKMSDRVTIIRRGKVTGTVNTKDTSIDELAELMVGRKVNLTIAKKESKAGKEVLRVEELKVKDHRDVLVVKGINLVVNSGEILGIAGVDGNGQSEFIEALTGLKKVESGNVILNGKNISGKSAKYITNSGVGHIPEDRHKRGLVLKYSLYENSILGMHHRKPFSRMFNINYKAVRKHCKKLIEEFDIRTPNDEVNAAALSGGNQQKLVVAREISRNPDLLIASQPTRGLDVGAIEYIHKRIVEERDKGKAVLLVSLELDEILALSDRIAVMYDGKIVDVLERKDADEKKLGILMAGGNLDKKESVNTVEER
MGSDKIHHHHHHMDMLLKKILGTFGVSGREKEISEVIKEELNKYPCEVREDKLGNIIVKLGSGREKIMLSTNMDKKGVITYHIEEDGKVRIDAIGDIKADDIIGKTVVFRSGIEGKIESEKKENNEFRDIYVNVNMGKREAVLKYISEGEAAEFGGNTFADKENVVGPYLSNRAGCYAFLKVIKEIKSIDKEVYFVFSTQGNLNGRGARAAAFEIEPDMCISVNTEKEGEVKLSEGPILVLMEKGLITNYHVKEQIISSAEKAQIKLQRCVSSESSDGSVVHKEVGGIKTGTIALPCKNKNETNETISLNDVDDLVKLLQYIVKK
MGSDKIHHHHHHMDNKTQEKADFTLANAYGGVEMVRADYKGQAFSKHVHEGYTIGVIEKGAQRFYRSGEIHTADTNSIILVNADDVHTGESASSGGWQYRAMYPLPEHFENISNDLYDKGKFAPYFGSSVINDPLLTDQLRLLFNQVDNNASQLLTETIMYSLMLRLTLRHSSLRHVPKDISGSKAKLLRVKEYLDSYPAEDISLKQLAIIAGLSQYHFIRQFKKMFDLAPHSYQIQARLKKAKTLLKAGVKPVMVASDCGFHDQSHFNRHFKKALGTSPSKFQKQAVLYKN
MGSDKIHHHHHHMDPIEFIQKSASSIASTMHKLKLKYNPFSEKPIRGNTKFFVGRVSELREIGEILGSALHGSVANAAIVGTKGIGKSSMLNIIYYATKKQGHWVVEMTASQVTPRQFLIQLLYNILTENIITMSGTIKSDYMEHSSRILDMYRKLNNYGDKVPIHYPRERIERDLEYLINEVKSPDKLCIILIDEADQFAKKSCLSLLQFFHSFLYEEGILTFMAGSPTLMDDLTKISPPIKDRIPKIINMPPLSKDESYDLIRRRLEDAHIDGAEEFEPFTEEAIHKIVEECDGIPRKIIMTCSESISIAIRKGLTKIDEKVVKEAMHSLGISVGHQILNHLTPAQSEIVRAMAELGGSATVTQLAEYLKKSPSTIGTHLSDIYEMGYIYKEREGNNVYYKLSKELRDVLIGEDDELEM
MGSDKIHHHHHHMDQAQIEIQVLSSLSQIAASDWDACACPEAEAGGRPLDPFTTHRFLSALEDSGSVGQGTGWQPQYLTCYLDGQLVACAPLYAKGHSQGEYIFDHNWAHAYERAGGRYYPKLQVAVPFTPATGRRFLVRPGYEEIGISALLQGAVQLASDNQLSSLHVTFCTSDEAEAGREIGLMSRSSQQFHWLNDGYAGFEAFLAALSSRKRKNIRKERKQAQGFGGSIETYTGADLRSEHWDAFWRFYQDTGSRKWGTPYLTRAFFEIIHDTMAEDMALVLAERDGVPVAGALNFIGAKTLYGRYWGCMEHHPCLHFELCYYQAIDLAIEMGLDRVEAGAQGEHKLARGYLPTETHSLHWVADPGFRAAIEQYLEAERAAVGEEIEILTSYGPFKKTHVEEQE
MGSDKIHHHHHHMDRILTFDCYGTLIDTKPVFDAISNIAKNNILNSKDAVNIYVNYEDRLMYGETYIPYDKLIKQVLEYCDMELVTNVFSKSYDEIISVHKRLKPFKEVVESLEKIHKKGYELALMSNSVHDIIDYNLDALGNVFNNVFLSEDIHAYKPQLKFFKYVEERLELKQKKHCHIAKGYWWDIVPCSKLGWRKIWVNRENKKGNKCHEPYEEVHTLDEVINLI
MGSDKIHHHHHHMDRKMNFVMISPHFPANFETFAHRLYENGINTLGIADTPYEQLSQGLRDHLTEYYRVDNMEDYDQVYRAVAYFAHKYGRIDRIESHNEYWLELDAHLRTDFNVFGYKNEDMLSIKTKARMKEIFRKTGIKVARGRVFTSTEDARALTKELGFPVIIKPNSGVGASDTYKIKSAEELEDFFGYQNPTVDYIMEEFIDGDIVTFDGLTDHEGNIVFYSSLEYSEAVLDTVEKDNDMFYYVPRDISPELIKLGEQCVEAFNVKERFFHFEFFRIKKTKDLMALEVNCRPPGGLTIDMWDYANDFDVFNEYAHIVKDNRFEAHITRPYNVVYIARKANKHYAHSIEDIETKFGHHIIEIESVPGIFAKIMGEVGILARTETMNEMRDIICFAHAKI
MGSDKIHHHHHHMDSEFANAVELSYECAPLLESLKEYSEKDIACFDVPGHVKNRGVAILNKYLGESLMKMDINSSPTMDNVSAPNGIIKNAQDLLAQAYMADEAFFITNGTTQAIHAMILSVIKPGEKVLLPRNIHKSVINALILCGGIPIFIQPEFDEKLGISLNITLEKVRTEIEKDCNIKALFFLNPTYYGVCADLESIIELCHKNNVLVLVDEAHGAHFPFHLDLPPSAISLGADMVAVSIHKTGGALTQSSALLLNRDNVSFEKVLQSINMLQSTSASYLLMASIDGARVNLVENGEKQLSKALNLSRYAKSKLNKIDGIKVLSTEILKQKGVKFIDETKLCINVKELNLTGFEVYDLLYKNFSIQVELGDSYNILALVSIGTNKSDIDRLVKALSIIAKVYRKESTLNEFNMVQINPIIKLNPREAFYAPKESVEINSCIDRICGESIMAYPPGIPIIAPGELITEEIMEYIIFLKNSNAYLTDVQDKNLDRILVIK
MGSDKIHHHHHHMDTSIKKKRVRGRLLREMIEDAAFEVIEKEGLAGFSMRKLAAALGCEAMSIYHHFPSVAHLHEALVDRLVGALEMPDASLPWRQRMRIAIEDFRSIGRDHPAYATFFVTYRMNSPICLAWLNGILSLFRDGGFDTELSARLFRAVGYYLMGAVLDENAGYAKGPSAVNTVSDEQLARDFPNVMAAGRFFGTAEFDKTFELGLDMLLDEMERLRDGADAGQLSGKV
MGSDKIHHHHHHMDWLSKHYQQQKGYDELVGEGAVPRLPAAPLFDYLSTLDSSELRARRQAADAAILAMGITFTVYSEAGDIDRAWPFDIIPRILSRREWMRIEEGLKQRLQALNLFIDDIYNAQRIVVDGVFPAEVLASSRNFREACRGVHPPFGVWAHICGSDLVRDADGTVYVLEDNLRVPSGVSYMLENRQIMKRLFPELFKSSTILPVDDYPNRLYDTLAALSPREGERPVVAVLTPGIYNSAYFEHSYLAQQMGAYLAEGADFFVSRDDIVYLRTISGPQRVDVIYRRIDDEYMDPEVFFTDSALGIPGLLRAWRRGTVAIANAPGAGVADDKVVYAFVPDIIRYYLGAEPILPNVPTYLCMREADRDYVLSHLHELVVKPANESGGYGMLIGPRATSEERGRFAELIAANPRNYIAQPTLNLSTAPTLVEDHLEARHLDLRPFILQADKLYVTTGGLTRVAMQPGSLVVNSSQGGGSKDTWIVDEEAPCFRA
MGSDKIHHHHHHMDYRKYFEKLKSDYVYLDNAATTPPLKSVMKKALEFLENYSSIHRGTGYLAKMSTDSYENSRRVIGEYLHATKDDVVVFTANTTDSINKFALLYPFMGNEGVLISDIEHSSNMLPWFKNSGRVKMFNTGKSNKINPYSIEEELYRNPQIKIVSICGASNLTGYLTPLRDIYKICKKYGVYLLVDASQIAPHFKITLDDCDFIAFSGHKMYAPFGAGVLAGRKDVLSHIGLAPTGGGNIVYIGKRGEVIYKEPPLSLEAGTPNGLGAVTVAEAMRVLNEDIGWENMNQHNKRINEIGYKYLSDLSNIKLYYPKDQDIRINRTPTFVFDFKNVGTKVGCDILKENKIGVRCGTFCLYRLIEKVKNIDEYERKRLYRNYIVPNRELPERYSLVRASAGLMTTEEDFLRLRAAIKKVE
MGSDKIHHHHHHMDYSSKDIKSIISEILDKKKAKGGVKSIYVVGCGGSLGALYPAKTFMEKECTSIKSAWINSSEFIHSTPKDFGVNSIICLACHKGNTPETIAAAKLGKEMGATVIILTWLKESEIIEFGDYIIRYTFDASPDHLKGDIDYSGEKTICALLVAVELLAQTEGYENYNKFYEGTKMISNIIKNARNHVAERAVKFAEKYKDDSVIYTMGSGASYGAAYMESICIFMEMQWLNSSSIHTGEYFHGPFEITDANRPFMIQISEGSTRDLDERALKFLNTYAKRIEVLDAKELGLSTIDASVVDYFNHSLFNNVYPIYNHELATKREHPLPTRRYMWKVEY
MGSDKIHHHHHHMECSGLYPRRNRSSHNQSEFQVSFMATELSALPANHPRVTFGKVGVLLVNLGTPDGTDYWPMRRYLAEFLSDKRVIEWSRLYWYPILYGIVLNKRPQKVGKAYEEIWNHERNESYLRTYTRSQGELMAAALKDFPNVVVDWAMRYGQPSIASRIDALKEQGCEKILLFPLYPQYAASTTATVNDKAFEHLMKLRWQPAIRTVPPYHDDPAYIEGLAASVKNHLATLDWEPEMLITSFHGIPQSYFKKGDPYYCHCQKTARLLREALGRTEKNFMITFQSRFGPEEWLQPYTDKTVEKLASEGIKRIAVMNPGFVSDCLETLEEIAGEAGEIFLHNGGEKFTHIPCLNDSTEGMNVLEKVVRRELQGWV
